Test in all cases: phage ELISA
In general terms: In an ELISA, binding on a coated surface is turned into a signal by an enzyme label.

The target of assay [1] is T1, mouse LTβR extracellular domain fused with an Fc fragment at the C-terminus (mouse, UniProt P50284 31-223).
T1 construct: extracellular domain; Bought; also called mLTβR; not shown: Fc fragment at the C-terminus
Here is the method: (§1) Individual clones from the fourth selection round were grown in 96-well deep well blocks in 100 μl of 2YT broth supplemented with 50 μg/ml ampicillin at 37° C. and 220 rpm for 5 hours. Then, 5 μl of helper phages were added to each well and incubated at 37° C. for 30 minutes. After centrifuging at 3,000 rpm for 10 minutes, the cells were resuspended and grown overnight in 150 μl/well of 2YT broth supplemented with 50 μg/ml ampicillin and 50 μg/ml kanamycin.
(§2) For the ELISA screening, 96-well ELISA plates were coated with target proteins (1 μg/ml in PBS) at 4° C. overnight and then blocked with 2% BSA for 2 hours at room temperature. The supernatant containing phage particles was added to the plates and incubated at room temperature for 1 hour. After incubation, the plates were washed five times with PBST. HRP (horseradish peroxidase) conjugated anti-M13 antibody (Sino Biological, China) was added to the wells and incubated at room temperature for 1 hour. Following another round of washing five times with PBST, 50 μl of TMB (3,3′, 5,5″-tetramethylbenzidine, #34029, ThemoFisher) was added to each well. After 5 minutes, the reaction was stopped by adding 50 μl stop solution (#C1058, Solarbio, China). The absorbance at 450 nm (OD450) was measured using a plate reader (SpectraMax M5, Molecule Devices). Wells coated with BSA were used as negative controls. Phage clones with an ELISA score ratio (target/BSA)>3 were considered positive clones.

Assay [2] deals with T2, human HVEM extracellular domain fused with an Fc fragment at the C-terminus (human, UniProt Q92956 39-202).
T2 construct: extracellular domain; Bought; also called hHVEM; not shown: Fc fragment at the C-terminus
T2 sequence (looked up): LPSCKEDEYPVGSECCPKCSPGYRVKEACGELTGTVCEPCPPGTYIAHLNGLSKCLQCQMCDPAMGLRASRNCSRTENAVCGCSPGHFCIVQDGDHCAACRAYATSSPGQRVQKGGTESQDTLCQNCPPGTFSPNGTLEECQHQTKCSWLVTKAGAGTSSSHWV
Here is the method: as §1, §2

The target of assay [3] is T3, human LTβR extracellular domain fused with an Fc fragment at the C-terminus (human, UniProt P36941 31-227).
T3 construct: extracellular domain; Bought; also called hLTβR; not shown: Fc fragment at the C-terminus
T3 sequence (P36941 31-227): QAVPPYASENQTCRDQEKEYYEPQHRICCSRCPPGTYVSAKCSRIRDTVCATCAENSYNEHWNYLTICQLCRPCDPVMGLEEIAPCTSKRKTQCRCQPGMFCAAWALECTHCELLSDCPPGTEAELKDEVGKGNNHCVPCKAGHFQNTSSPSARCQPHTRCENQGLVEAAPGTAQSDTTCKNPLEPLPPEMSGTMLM
Here is the method:
as §1, §2

Assay [4] deals with T4, mouse HVEM extracellular domain fused with an Fc fragment at the C-terminus (mouse, UniProt Q80WM9 39-206, limits assumed).
T4 construct: extracellular domain; Bought; also called mHVEM; not shown: Fc fragment at the C-terminus
T4 sequence (looked up): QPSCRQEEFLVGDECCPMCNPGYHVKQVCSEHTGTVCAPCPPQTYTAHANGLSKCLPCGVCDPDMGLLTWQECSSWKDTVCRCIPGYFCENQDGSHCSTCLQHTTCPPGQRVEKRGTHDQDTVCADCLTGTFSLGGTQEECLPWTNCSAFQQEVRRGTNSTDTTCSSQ
Here is the method:
as §1, §2

T1 sequence (P50284 31-223): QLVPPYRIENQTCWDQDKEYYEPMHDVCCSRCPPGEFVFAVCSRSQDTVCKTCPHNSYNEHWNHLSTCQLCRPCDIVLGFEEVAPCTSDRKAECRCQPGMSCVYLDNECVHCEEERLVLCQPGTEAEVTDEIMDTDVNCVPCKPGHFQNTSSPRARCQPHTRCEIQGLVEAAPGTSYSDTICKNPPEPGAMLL

B1: LIGHT-4 (ligand)
chain: DGPAGSWEQLIQERRSHEVNPAAHLTGANSSLTGSGGPLLWETQLGLAFLRGLSYHDGALVVTKAGYYYIYSKVQLGGMGCPLGLASPITHGLYKRTPRYPEELELLVSQQSPCGRATSSSRVWWDSSFLGGVVHLEAGEKVVVRVLDERLVRLLDGTRSYFGAFMV
notes: Printed mutations: V152M, T161P, R228L; Soluble protein carries an N-terminal His tag
B1: the binding result in assay [1] was “binds”; in assay [2], “no binding”; in assay [3], “binds”; in assay [4] it was “binds”.

B2: LIGHT-80 (ligand)
chain: DGPAGSWEQLIQERRSHEVNPAAHLTGANSSLTGSGGPLLWETNLGLAFLRGLSYHDGALVVTKAGYYYIYSKVQLGGVGCPLGLAGGITHGLYKRTPRYPEELELLVSQQSPCGRATSSSRVWWDSSFLGGVVHLEAGEKVVVRVSDSRLVRTRDGTRSYFGAFMV
notes: Printed mutations: Q117N, S160G, T161G, L220S, E222S, L227T; Soluble protein carries an N-terminal His tag
As to B2, the binding result in assay [1], in assay [2] and in assay [3] was “binds” in each case.

B3: LIGHT-77 (ligand)
chain: DGPAGSWEQLIQERRSHEVNPAAHLTGANSSLTGSGGPLLWETELGLAFLRGLSYHDGALVVTKAGYYYIYSKVQLGGVGCPLGLAGPITHGLYKRTPRYPEELELLVSQQSPCGRATSSSRVWWDSSFLGGVVHLEAGEKVVVRVSDERLVRTRDGTRSYFGAFMV
notes: Printed mutations: Q117E, S160G, T161P, L220S, L227T; Soluble protein carries an N-terminal His tag
Regarding B3, the binding result in assay [1], in assay [2] and in assay [3] was “binds” in each case.

B4: LIGHT-8 (ligand)
chain: DGPAGSWEQLIQERRSHEVNPAAHLTGANSSLTGSGGPLLWETQLGLAFLRGLSYHDGALVVTKAGYYYIYSKVQLSGVGCPLGLAGTITHGLYKRTPRYPEELELLVSQQSPCGRATSSSRVWWDSSFLGGVVHLEAGEKVVVRVSDERLVRLRDGTRSYFGAFMV
notes: Printed mutations: G150S, S160G, L220S; Soluble protein carries an N-terminal His tag
As for B4, the binding result in assay [1] is recorded as “binds”; in assay [2], “no binding”; in assay [3] it was “binds”; in assay [4], “binds”.

B5: LIGHT-83 (ligand)
chain: DGPAGSWEQLIQERRSHEVNPAAHLTGANSSLTGSGGPLLWETELGLAFLRGLSYHDGALVVTKAGYYYIYSKVQLGGVGCPLGLAGPITHGLYKRTPRYPEELELLVSQQSPCGRATSSSRVWWDSSFLGGVVHLEAGEKVVVRVSDSRLVRTRDGTRSYFGAFMV
notes: Printed mutations: Q117E, S160G, T161P, L220S, E222S, L227T; Soluble protein carries an N-terminal His tag
In the case of B5, the binding result in assay [1], in assay [2] and in assay [3] was “binds” throughout.

B6: LIGHT-74 (ligand)
chain: DGPAGSWEQLIQERRSHEVNPAAHLTGANSSLTGSGGPLLWETNLGLAFLRGLSYHDGALVVTKAGYYYIYSKVQLGGVGCPLGLAGGITHGLYKRTPRYPEELELLVSQQSPCGRATSSSRVWWDSSFLGGVVHLEAGEKVVVRVSDERLVRTRDGTRSYFGAFMV
notes: Printed mutations: Q117N, S160G, T161G, L220S, L227T; Soluble protein carries an N-terminal His tag
On to B6, for which the binding result in assay [1], in assay [2] and in assay [3] was “binds” in each case.

B7: LIGHT-75 (ligand)
chain: DGPAGSWEQLIQERRSHEVNPAAHLTGANSSLTGSGGPLLWETNLGLAFLRGLSYHDGALVVTKAGYYYIYSKVQLGGVGCPLGLAGPITHGLYKRTPRYPEELELLVSQQSPCGRATSSSRVWWDSSFLGGVVHLEAGEKVVVRVSDERLVRTRDGTRSYFGAFMV
notes: Printed mutations: Q117N, S160G, T161P, L220S, L227T; Soluble protein carries an N-terminal His tag
Regarding B7, the binding result in assay [1], in assay [2] and in assay [3] was “binds” in each case.

B8: LIGHT-13 (ligand)
chain: DGPAGSWEQLIQERRSHEVNPAAHLTGANSPLTGSGGPLLWETQLGLAFLRGLSYHDGALVVTKAGYYYIYSKVQLGGVGCPLSLASTITHGLYKRTPRYPEELELLVSQQSPCGRATSSSRVWWDSSFLGGVVYLEAGEKVVVRVRDERLVRLRDGTRSYFGAFMV
notes: Printed mutations: S104P, G157S, H208Y, L220R; Soluble protein carries an N-terminal His tag
Turning to B8, the binding result in assay [1], in assay [2], in assay [3] and in assay [4] was “binds” in each case.

B9: LIGHT-79 (ligand)
chain: DGPAGSWEQLIQERRSHEVNPAAHLTGANSSLTGSGGPLLWETELGLAFLRGLSYHDGALVVTKAGYYYIYSKVQLGGVGCPLGLAGSITHGLYKRTPRYPEELELLVSQQSPCGRATSSSRVWWDSSFLGGVVHLEAGEKVVVRVSDERLVRTRDGTRSYFGAFMV
notes: Printed mutations: Q117E, S160G, T161S, L220S, L227T; Soluble protein carries an N-terminal His tag
For B9, the binding result in assay [1], in assay [2] and in assay [3] was “binds” each time.

B10: LIGHT-85 (ligand)
chain: DGPAGSWEQLIQERRSHEVNPAAHLTGANSSLTGSGGPLLWETELGLAFLRGLSYHDGALVVTKAGYYYIYSKVQLGGVGCPLGLAGSITHGLYKRTPRYPEELELLVSQQSPCGRATSSSRVWWDSSFLGGVVHLEAGEKVVVRVSDSRLVRTRDGTRSYFGAFMV
notes: Printed mutations: Q117E, S160G, T161S, L220S, E222S, L227T; Soluble protein carries an N-terminal His tag
Turning to B10, the binding result in assay [1], in assay [2] and in assay [3] was “binds” in each case.

B11: LIGHT-6 (ligand)
chain: DGPAGSWEQLIQERRSHEVNPAAHLTGANSSLTGSGGPLLWETQLGLAFLRGLSYHDGALVVTKAGYYYIYSKVQLGGVGCPLGLASTITHGLYKRTPRYPEELELLVSQQSPCGRATSSSRVWQDSSFLGGVVHLEAGEKVVVRVNGERLVRLRDGTRSYFGAFMV
notes: Printed mutations: W198Q, L220N, D221G; Soluble protein carries an N-terminal His tag
B11: the binding result in assay [1] was “binds”; in assay [2] it was “no binding”; in assay [3] it was “binds”; in assay [4] it was “binds”.

B12: LIGHT-78 (ligand)
chain: DGPAGSWEQLIQERRSHEVNPAAHLTGANSSLTGSGGPLLWETNLGLAFLRGLSYHDGALVVTKAGYYYIYSKVQLGGVGCPLGLAGSITHGLYKRTPRYPEELELLVSQQSPCGRATSSSRVWWDSSFLGGVVHLEAGEKVVVRVSDERLVRTRDGTRSYFGAFMV
notes: Printed mutations: Q117N, S160G, T161S, L220S, L227T; Soluble protein carries an N-terminal His tag
For the molecule B12, the binding result in assay [1], in assay [2] and in assay [3] was “binds” in each case.

B13: LIGHT-43 (ligand)
chain: DGPAGSWEQLIQERRSHEVNPAAHLTGANSSLTGSGGPLLWETQLGLAFLRGLSYHDGALVVTKAGYYYIYSKVQLRGVGCPLGLATTITHGLYKRTPRYPEELELLVSQQSPCGRATSSSRVWWDSSFLGGVVHLEAGEKVVVRVSDERLVRLRDGTRSYFGAFMV
notes: Printed mutations: G150R, S160T, L220S; Soluble protein carries an N-terminal His tag
B13: the binding result in assay [1], in assay [2], in assay [3] and in assay [4] was “binds” in each case.

B14: LIGHT-38 (ligand)
chain: DGPAGSWEQLIQERRSHEVNPAAHLTGANSSLTGSGGPLLWETQLGLAFLRGLSYHDGALVVTKAGYYYIYSKVQLGGVGCPLGLASTITHGLYKRTPRYPEELELLVSQRSPCGRATSSSRVWQDSSFLGGVVHLEAGEKVVVRVLDERLVRLRDGTRSYFGAFMV
notes: Printed mutations: Q184R, W198Q; Soluble protein carries an N-terminal His tag
B14: the binding result in assay [1], in assay [2], in assay [3] and in assay [4] was “binds” throughout.

B15: LIGHT-81 (ligand)
chain: DGPAGSWEQLIQERRSHEVNPAAHLTGANSSLTGSGGPLLWETNLGLAFLRGLSYHDGALVVTKAGYYYIYSKVQLGGVGCPLGLAGPITHGLYKRTPRYPEELELLVSQQSPCGRATSSSRVWWDSSFLGGVVHLEAGEKVVVRVSDSRLVRTRDGTRSYFGAFMV
notes: Printed mutations: Q117N, S160G, T161P, L220S, E222S, L227T; Soluble protein carries an N-terminal His tag
For B15, the binding result in assay [1], in assay [2] and in assay [3] was “binds” throughout.

B16: LIGHT-82 (ligand)
chain: DGPAGSWEQLIQERRSHEVNPAAHLTGANSSLTGSGGPLLWETELGLAFLRGLSYHDGALVVTKAGYYYIYSKVQLGGVGCPLGLAGGITHGLYKRTPRYPEELELLVSQQSPCGRATSSSRVWWDSSFLGGVVHLEAGEKVVVRVSDSRLVRTRDGTRSYFGAFMV
notes: Printed mutations: Q117E, S160G, T161G, L220S, E222S, L227T; Soluble protein carries an N-terminal His tag
B16: the binding result in assay [1], in assay [2] and in assay [3] was “binds” throughout.

The values are drawn from US20250361288A1 (Gilead, published 2025).
